Source: article PMC5358979

Legend:
FEN1 WT (Homo sapiens) [1] = test: smFRET; conditions: smFRET reaction buffer with CaCl2 (binding) or MgCl2 (cleavage), SPR in same buffer with CaCl2, no oxygen scavenger, salt, pH and temperature not given in the …; for Kd: Ca2+, Kd-bending
FEN1 WT (Homo sapiens) [2] = test: smFRET dwell-time kinetics; conditions: smFRET reaction buffer with CaCl2 (binding) or MgCl2 (cleavage); SPR in same buffer with CaCl2, no oxygen scavenger; salt, pH and temperature not given in the …

Row | Substance | Kd (FEN1 WT (Homo sapiens) [2]) [nM] | Kd (FEN1 WT (Homo sapiens) [1]) [nM] | further results
1 | DF-7,1mismatch(1nt) |  |  | binding signal (fold Kd-bending increase vs DF-6,1) (FEN1 WT (Homo sapiens) [1]): 7
2 | EQ DF-6,1Flap | 3.2 |  | 
3 | NonEQ DF-6,1Flap |  | 3.9 | 
4 | NonEQ DF-6,1dsDNA |  | 4.6 | 
5 | SF-6,0Flap | 166 |  | 
